Results from the Human Domainome abundance scans (Beltran et al. 2025).
± gives the uncertainty stated by the source.

B1: Formin-binding protein 4, residues 593 to 636; numbered along this chain, Q8N3X1 (parent)
chain: EINATPKGWSCHWDRDHRRYFYVNEQSGESQWEFPDGEEEEEES

Variants of: B1
Experiment: abundance fitness (aPCA) (normalised: wild type 0, dead -1); higher = more abundant; growth selection in yeast, the domain comes from the species named
Conditions: Homo sapiens
For RINATPKGWSCHWDRDHRRYFYVNEQSGESQWEFPDGEEEEEES, the abundance fitness was -0.186 ± 0.23. With AINATPKGWSCHWDRDHRRYFYVNEQSGESQWEFPDGEEEEEES the abundance fitness was -0.14 ± 0.15. Work on MINATPKGWSCHWDRDHRRYFYVNEQSGESQWEFPDGEEEEEES yielded an abundance fitness of -0.019 ± 0.2. With DINATPKGWSCHWDRDHRRYFYVNEQSGESQWEFPDGEEEEEES the abundance fitness was -0.154 ± 0.15. NINATPKGWSCHWDRDHRRYFYVNEQSGESQWEFPDGEEEEEES showed an abundance fitness of -0.304 ± 0.34. With WINATPKGWSCHWDRDHRRYFYVNEQSGESQWEFPDGEEEEEES the abundance fitness was -0.061 ± 0.41. For VINATPKGWSCHWDRDHRRYFYVNEQSGESQWEFPDGEEEEEES, the abundance fitness was -0.499 ± 0.16. In the case of GINATPKGWSCHWDRDHRRYFYVNEQSGESQWEFPDGEEEEEES, the abundance fitness is reported as -0.433 ± 0.11. For KINATPKGWSCHWDRDHRRYFYVNEQSGESQWEFPDGEEEEEES, the abundance fitness was 0.036 ± 0.12. In the case of EWNATPKGWSCHWDRDHRRYFYVNEQSGESQWEFPDGEEEEEES, the abundance fitness is reported as -0.283 ± 0.1. Work on EYNATPKGWSCHWDRDHRRYFYVNEQSGESQWEFPDGEEEEEES yielded an abundance fitness of -0.02 ± 0.25. Work on ESNATPKGWSCHWDRDHRRYFYVNEQSGESQWEFPDGEEEEEES yielded an abundance fitness of 0.142 ± 0.1. With ELNATPKGWSCHWDRDHRRYFYVNEQSGESQWEFPDGEEEEEES the abundance fitness was -0.208 ± 0.11. EVNATPKGWSCHWDRDHRRYFYVNEQSGESQWEFPDGEEEEEES showed an abundance fitness of -0.204 ± 0.095. Work on ERNATPKGWSCHWDRDHRRYFYVNEQSGESQWEFPDGEEEEEES yielded an abundance fitness of -0.006 ± 0.091. Work on EANATPKGWSCHWDRDHRRYFYVNEQSGESQWEFPDGEEEEEES yielded an abundance fitness of -0.518 ± 0.2. EENATPKGWSCHWDRDHRRYFYVNEQSGESQWEFPDGEEEEEES gave an abundance fitness of -0.173 ± 0.3. In the case of EPNATPKGWSCHWDRDHRRYFYVNEQSGESQWEFPDGEEEEEES, the abundance fitness is reported as -0.094 ± 0.11. Work on EINKTPKGWSCHWDRDHRRYFYVNEQSGESQWEFPDGEEEEEES yielded an abundance fitness of -0.008 ± 0.17. Variant EINRTPKGWSCHWDRDHRRYFYVNEQSGESQWEFPDGEEEEEES has an abundance fitness of -0.01 ± 0.07. Variant EINPTPKGWSCHWDRDHRRYFYVNEQSGESQWEFPDGEEEEEES has an abundance fitness of 0.086 ± 0.29. Variant EINLTPKGWSCHWDRDHRRYFYVNEQSGESQWEFPDGEEEEEES has an abundance fitness of 0.019 ± 0.1. EINNTPKGWSCHWDRDHRRYFYVNEQSGESQWEFPDGEEEEEES showed an abundance fitness of 0.2 ± 0.12. In the case of EINMTPKGWSCHWDRDHRRYFYVNEQSGESQWEFPDGEEEEEES, the abundance fitness is reported as 0.036 ± 0.12. For EINVTPKGWSCHWDRDHRRYFYVNEQSGESQWEFPDGEEEEEES, the abundance fitness was -0.132 ± 0.096. For EINGTPKGWSCHWDRDHRRYFYVNEQSGESQWEFPDGEEEEEES, the abundance fitness was 0.033 ± 0.073. For EINQTPKGWSCHWDRDHRRYFYVNEQSGESQWEFPDGEEEEEES, the abundance fitness was -0.122 ± 0.2. In the case of EINTTPKGWSCHWDRDHRRYFYVNEQSGESQWEFPDGEEEEEES, the abundance fitness is reported as -0.032 ± 0.16. EINSTPKGWSCHWDRDHRRYFYVNEQSGESQWEFPDGEEEEEES showed an abundance fitness of -0.306 ± 0.18. EINETPKGWSCHWDRDHRRYFYVNEQSGESQWEFPDGEEEEEES gave an abundance fitness of 0.081 ± 0.19. EIYATPKGWSCHWDRDHRRYFYVNEQSGESQWEFPDGEEEEEES showed an abundance fitness of -0.062 ± 0.24. With EILATPKGWSCHWDRDHRRYFYVNEQSGESQWEFPDGEEEEEES the abundance fitness was -0.239 ± 0.11. In the case of EIVATPKGWSCHWDRDHRRYFYVNEQSGESQWEFPDGEEEEEES, the abundance fitness is reported as -0.093 ± 0.11. With EIHATPKGWSCHWDRDHRRYFYVNEQSGESQWEFPDGEEEEEES the abundance fitness was -0.128 ± 0.15. EIAATPKGWSCHWDRDHRRYFYVNEQSGESQWEFPDGEEEEEES gave an abundance fitness of -0.177 ± 0.088. EIEATPKGWSCHWDRDHRRYFYVNEQSGESQWEFPDGEEEEEES showed an abundance fitness of 0.185 ± 0.15. EIQATPKGWSCHWDRDHRRYFYVNEQSGESQWEFPDGEEEEEES gave an abundance fitness of 0.041 ± 0.084. Variant EISATPKGWSCHWDRDHRRYFYVNEQSGESQWEFPDGEEEEEES has an abundance fitness of -0.072 ± 0.12. In the case of EICATPKGWSCHWDRDHRRYFYVNEQSGESQWEFPDGEEEEEES, the abundance fitness is reported as -0.304 ± 0.2. With EIMATPKGWSCHWDRDHRRYFYVNEQSGESQWEFPDGEEEEEES the abundance fitness was 0.323 ± 0.24. Variant EIRATPKGWSCHWDRDHRRYFYVNEQSGESQWEFPDGEEEEEES has an abundance fitness of -0.169 ± 0.085. EIDATPKGWSCHWDRDHRRYFYVNEQSGESQWEFPDGEEEEEES showed an abundance fitness of 0.157 ± 0.34. Variant EIGATPKGWSCHWDRDHRRYFYVNEQSGESQWEFPDGEEEEEES has an abundance fitness of -0.098 ± 0.071. In the case of EITATPKGWSCHWDRDHRRYFYVNEQSGESQWEFPDGEEEEEES, the abundance fitness is reported as -0.355 ± 0.48. EINAAPKGWSCHWDRDHRRYFYVNEQSGESQWEFPDGEEEEEES gave an abundance fitness of -0.387 ± 0.26. In the case of EINACPKGWSCHWDRDHRRYFYVNEQSGESQWEFPDGEEEEEES, the abundance fitness is reported as 0.052 ± 0.15.
